T1: PUF4 RNA-binding domain (Saccharomyces cerevisiae, UniProt P25339 537-888)
T1 sequence: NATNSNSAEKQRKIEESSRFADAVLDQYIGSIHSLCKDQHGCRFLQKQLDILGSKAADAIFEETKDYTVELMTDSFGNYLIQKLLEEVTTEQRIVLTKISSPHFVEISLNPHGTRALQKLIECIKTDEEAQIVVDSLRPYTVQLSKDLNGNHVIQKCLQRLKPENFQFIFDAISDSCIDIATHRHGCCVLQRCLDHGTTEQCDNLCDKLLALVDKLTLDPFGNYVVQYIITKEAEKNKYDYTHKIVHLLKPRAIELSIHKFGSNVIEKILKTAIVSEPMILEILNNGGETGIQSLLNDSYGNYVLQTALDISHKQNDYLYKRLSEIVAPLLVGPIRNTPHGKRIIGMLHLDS


Target: T1, PUF4 RNA-binding domain
Experiment: Mg; RNA-MaP; 20 mM Na-HEPES pH 7.4, 30 mM KOAc, 0.75 mM MgCl2, 0.1% Tween-20, 5% glycerol, 0.1 mg/mL BSA, 2 mM DTT; 25 C; 0.0125-409.6 nM protein
Conditions: tags: N-His6-TEV cleaved; C-SNAP kept, Cy3B-labelled; label: tethered on chip by stalled RNA polymerase

| Binder | Kd [nM] |
| --- | --- |
| Ic_S4_P4E.1_K4.1_C4.1_H4.1_A4.1_[T5A]_[A6C]_[T7G]_F4.1_[T8G]_[A9T]_T4.1 (ssRNA) RNA: UUUGACAACUGAUCGUUCUUUCUUGUAACGGUUUCUUUCUCGAUCAGUUGUCUUU | 1290 |
| Ic_S4_P4E.1_K4.1_C4.1_H4.1_A4.1_[T5A]_[A6C]_[T7G]_F4.1_T4.1 (ssRNA) RNA: UUUGACAACUGAUCGUUCUUUCUUGUAACGUAUUCUUUCUCGAUCAGUUGUCUUU | 14.5 |
| Ic_S4_P4E.1_K4.1_C4.1_H4.1_A4.1_[T5A]_[A6C]_[T7A]_F4.1_[T8G]_[A9C]_T4.1 (ssRNA) RNA: UUUGACAACUGAUCGUUCUUUCUUGUAACAGCUUCUUUCUCGAUCAGUUGUCUUU | 879 |
| Ic_S4_P4E.1_K4.1_C4.1_H4.1_A4.1_[T5A]_[A6C]_[T7G]_F4.1_[A9C]_T4.1 (ssRNA) RNA: UUUGACAACUGAUCGUUCUUUCUUGUAACGUCUUCUUUCUCGAUCAGUUGUCUUU | 919 |
| Ic_S4_P4E.1_K4.1_C4.1_H4.1_A4.1_[T5C]_[T7C]_F4.1_[T8G]_[A9C]_T4.1 (ssRNA) RNA: UUUGACAACUGAUCGUUCUUUCUUGUACACGCUUCUUUCUCGAUCAGUUGUCUUU | 90.1 |
| Ic_S4_P4E.1_K4.1_C4.1_H4.1_A4.1_[T5A]_[A6C]_[T7A]_F4.1_[T8A]_[A9C]_T4.1 (ssRNA) RNA: UUUGACAACUGAUCGUUCUUUCUUGUAACAACUUCUUUCUCGAUCAGUUGUCUUU | 1050 |
| Ic_S4_P4E.1_K4.1_C4.1_H4.1_A4.1_[T5C]_[T7G]_F4.1_[T8C]_[A9T]_T4.1 (ssRNA) RNA: UUUGACAACUGAUCGUUCUUUCUUGUACAGCUUUCUUUCUCGAUCAGUUGUCUUU | 55.1 |
| Ic_S4_P4E.1_K4.1_C4.1_H4.1_A4.1_[T5C]_[A6T]_F4.1_[A9C]_T4.1 (ssRNA) RNA: UUUGACAACUGAUCGUUCUUUCUUGUACUUUCUUCUUUCUCGAUCAGUUGUCUUU | 13.1 |
| Ic_S4_P4E.1_K4.1_C4.1_H4.1_A4.1_[T5C]_[A6T]_F4.1_[T8A]_[A9C]_T4.1 (ssRNA) RNA: UUUGACAACUGAUCGUUCUUUCUUGUACUUACUUCUUUCUCGAUCAGUUGUCUUU | 108 |
| Ic_S4_P4E.1_K4.1_C4.1_H4.1_A4.1_[T5A]_[A6C]_[T7C]_F4.1_T4.1 (ssRNA) RNA: UUUGACAACUGAUCGUUCUUUCUUGUAACCUAUUCUUUCUCGAUCAGUUGUCUUU | 5.74 |
| Ic_S4_P4E.1_K4.1_C4.1_H4.1_A4.1_[T5A]_[A6C]_[T7G]_F4.1_[T8C]_[A9T]_T4.1 (ssRNA) RNA: UUUGACAACUGAUCGUUCUUUCUUGUAACGCUUUCUUUCUCGAUCAGUUGUCUUU | 205 |
| Ic_S4_P4E.1_K4.1_C4.1_H4.1_A4.1_[T5C]_F4.1_[T8A]_[A9G]_T4.1 (ssRNA) RNA: UUUGACAACUGAUCGUUCUUUCUUGUACAUAGUUCUUUCUCGAUCAGUUGUCUUU | 11 |
| Ic_S4_P4E.1_K4.1_C4.1_H4.1_A4.1_[T5C]_[T7A]_F4.1_[T8C]_[A9C]_T4.1 (ssRNA) RNA: UUUGACAACUGAUCGUUCUUUCUUGUACAACCUUCUUUCUCGAUCAGUUGUCUUU | 99.9 |
| Ic_S4_P4E.1_K4.1_C4.1_H4.1_A4.1_[T5A]_[A6C]_[T7A]_F4.1_[T8C]_[A9C]_T4.1 (ssRNA) RNA: UUUGACAACUGAUCGUUCUUUCUUGUAACACCUUCUUUCUCGAUCAGUUGUCUUU | 215 |
| Ic_S4_P4E.1_K4.1_C4.1_H4.1_A4.1_[T5C]_[T7G]_F4.1_[A9G]_T4.1 (ssRNA) RNA: UUUGACAACUGAUCGUUCUUUCUUGUACAGUGUUCUUUCUCGAUCAGUUGUCUUU | 9.03 |
| Ic_S4_P4E.1_K4.1_C4.1_H4.1_A4.1_[T5A]_[A6C]_[T7C]_F4.1_[A9T]_T4.1 (ssRNA) RNA: UUUGACAACUGAUCGUUCUUUCUUGUAACCUUUUCUUUCUCGAUCAGUUGUCUUU | 31.1 |
| Ic_S4_P4E.1_K4.1_C4.1_H4.1_A4.1_[T5A]_[A6C]_F4.1_[T8G]_[A9T]_T4.1 (ssRNA) RNA: UUUGACAACUGAUCGUUCUUUCUUGUAACUGUUUCUUUCUCGAUCAGUUGUCUUU | 95.2 |
| Ic_S4_P4E.1_K4.1_C4.1_H4.1_A4.1_[T5C]_F4.1_[A9C]_T4.1 (ssRNA) RNA: UUUGACAACUGAUCGUUCUUUCUUGUACAUUCUUCUUUCUCGAUCAGUUGUCUUU | 3.55 |
| Ic_S4_P4E.1_K4.1_C4.1_H4.1_A4.1_[T5C]_F4.1_[T8A]_T4.1 (ssRNA) RNA: UUUGACAACUGAUCGUUCUUUCUUGUACAUAAUUCUUUCUCGAUCAGUUGUCUUU | 2.32 |
| Ic_S4_P4E.1_K4.1_C4.1_H4.1_A4.1_[T5C]_[T7G]_F4.1_[A9C]_T4.1 (ssRNA) RNA: UUUGACAACUGAUCGUUCUUUCUUGUACAGUCUUCUUUCUCGAUCAGUUGUCUUU | 22.9 |
| Ic_S4_P4E.1_K4.1_C4.1_H4.1_A4.1_[T5C]_[A6T]_F4.1_[A9T]_T4.1 (ssRNA) RNA: UUUGACAACUGAUCGUUCUUUCUUGUACUUUUUUCUUUCUCGAUCAGUUGUCUUU | 6.37 |
| UCUCUUUGUAUUUGAUCUCUU (ssRNA) [Ib_S1_P4E.1_K4.1_C4.1_H4.1_A4.1_[A6T]_F4.1_[T8G]_T4.1] | 458 |
| UCUCUUUGUAUCUGAUCUCUU (ssRNA) [Ic_S1_P4E.1_K4.1_C4.1_H4.1_A4.1_[A6C]_F4.1_[T8G]_T4.1] | 76.5 |
| UCUCUUUGUAUCUCAUCUCUU (ssRNA) [Ib_S1_P4E.1_K4.1_C4.1_H4.1_A4.1_[A6C]_F4.1_[T8C]_T4.1] | 34.6 |
| UCUCUUUGUAUGUCAUCUCUU (ssRNA) [Ic_S1_P4E.1_K4.1_C4.1_H4.1_A4.1_[A6G]_F4.1_[T8C]_T4.1] | 384 |

Reference: article PMC9352680, “A comprehensive thermodynamic model for RNA binding by the Saccharomyces cerevisiae Pumilio protein PUF4”
